Assay results taken from patent US20240417440A1 (published 2024).

What was measured:
[1] = molecular target: T1, NY-ESO-1 peptide on HLA-A*02:01 (human); experiment: cytokine release
T1 peptide: FTVSGNILTI

[2] = molecular target: T2, NY-ESO-1 peptide on HLA-A*02:01 (human); experiment: cytokine release
T2 peptide: RLLEFYLAM

[3] = molecular target: T3, NY-ESO-1/LAGE-1 peptide on HLA-A*02:01 (human); experiment: multimer staining
T3 peptide: SLLMWITQC

B1: T11.8-10-17 (TCR, V domains shown)
Valpha: QKEVEQNSGPLSVPEGAIASLNCTYSDRGSQSFFWYRQYSGKSPELIMFIYSNGDKEDGRFTAQLNKASQYVSLLIRDSQPSDSATYLCAADDKIIFGKGTRLHILP
Vbeta: DAGVIQSPRHEVTEMGQEVTLRCKPISGHDYLFWYRQTMMRGLELLIYFNNNVPIDDSGMPEDRFSAKMPNASFSTLKIQPSEPRDSAVYFCASSRGGSGYTFGSGTRLTVV
B1: no recognition [1]; no recognition [2]; recognises [3].
